Experimental data: publication PMC11630628 (Molecular Plant, 2024)

Legend:
[1] = target: T1, MIK2 ectodomain (MIK2^LRR-MBP) (Arabidopsis thaliana, UniProt Q8VZG8); experiment: MST competitive binding analysis; conditions: MST competition (Figure 5F)
T1 construct: expressing only the ectodomain (residues 45–707); made in house; host or cells: E. coli strain BL21
T1 sequence (Q8VZG8 45-707): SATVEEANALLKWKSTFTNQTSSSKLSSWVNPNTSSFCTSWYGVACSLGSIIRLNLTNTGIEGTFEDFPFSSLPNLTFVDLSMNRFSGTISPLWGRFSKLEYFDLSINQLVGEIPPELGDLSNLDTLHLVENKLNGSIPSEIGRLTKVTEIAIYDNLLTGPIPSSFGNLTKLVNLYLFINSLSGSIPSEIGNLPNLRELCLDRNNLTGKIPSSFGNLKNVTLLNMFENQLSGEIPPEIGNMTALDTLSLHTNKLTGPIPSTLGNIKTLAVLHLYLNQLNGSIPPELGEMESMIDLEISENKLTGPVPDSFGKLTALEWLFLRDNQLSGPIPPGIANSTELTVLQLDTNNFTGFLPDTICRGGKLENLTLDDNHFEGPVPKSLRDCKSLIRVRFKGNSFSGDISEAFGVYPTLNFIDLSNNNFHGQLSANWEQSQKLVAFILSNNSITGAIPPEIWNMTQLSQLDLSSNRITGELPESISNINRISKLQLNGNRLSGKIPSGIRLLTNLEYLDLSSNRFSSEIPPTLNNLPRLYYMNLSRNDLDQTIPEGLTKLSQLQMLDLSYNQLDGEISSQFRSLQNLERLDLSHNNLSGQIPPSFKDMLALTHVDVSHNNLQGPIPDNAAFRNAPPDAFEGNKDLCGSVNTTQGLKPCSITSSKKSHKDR
Method: To express MIK2 protein in the soluble form, the truncated sequence of MIK2 (MIK2 ^LRR) expressing only the ectodomain (residues 45–707) was amplified from the gMIK2-Blunt subclone vector and inserted into the pET41 vector, fused with a 6× His-MBP tag. Then, the ectodomain of MIK2 (MIK2^LRR) in the absence of the putative N-terminal signal peptide was expressed in E. coli strain BL21 (TransGen). Cell cultures were grown to 0.6 optical density 600 and then induced with 0.3 mM isopropyl-β-D-thiogalactopyranoside for 30 h at 13°C. The mixture was then centrifuged at 12 000 rpm to separate the cells from the medium. The pellets were resuspended with the binding buffer (20 mM phosphate buffer, 500 mM NaCl, 50 mM imidazole, pH 7.4). The cells were sonicated on ice for 30 min in the lysis buffer (0.2 mg/mL lysozyme, 20 μg/mL DNAse, 1 mM MgCl2, 1 mM PMSF). […]
A Monolith NT.115 system (Nanotemper Technologies) was used to perform MST assays. […] The concentration of purified MIK2^LRR was measured with the BCA Protein Quantification Kit (Vazyme) and then diluted with ddH2O to 20 μM. […] MST results were analyzed using the Nanotemper analysis software (MO. Affinity) ([Jerabek-Willemsen et al., 2011]). […] The dissociation constant Ki was determined using the Ki Finder Tool available on the NanoTemper Technologies website (http://www.nanotempertechnologies.com/get-it-all/tools/ki-finder/).

bik1 pbl1 double mutants = tested on: bik1 pbl1 double mutants; design: method as in Hou et al., 2021b; conditions: ref Hou et al., 2021b; cited from earlier work
[2] = tested on: Arabidopsis root elongation; conditions: ref Hou et al., 2021b, Rhodes et al.; cited from earlier work
Excerpt: (§1) Senescence, a crucial biological event in plant development, involves the coordinated breakdown of cellular components to recycle nutrients, aiding adaptation to changing environments. It optimizes nutrient storage and reuse, particularly in leaves, the primary photosynthetic organs. Initiation of leaf senescence prompts various physiological changes, including chlorophyll (Chl) reduction and macromolecule degradation, enabling nutrient recycling that supports the growth of seeds and fruits ([Yang et al., 2014]; [Kim et al., 2018]; [Woo et al., 2019]; [Guo et al., 2021]). Efficient senescence ...

[3] = tested on: MIK2-dependent plant immune response; conditions: ref Hou et al., 2021b, Rhodes et al.; cited from earlier work
Excerpt: as §1, with “... || MIK2 was also linked to cell wall integrity ([Van der Does et al., 2017]; [Coleman et al., 2020]) and disease resistance ([Van der Does et al., 2017]). MIK2 was reported to function in elicitor perception in response to infection by Fusarium spp. fungi ([Van der Does et al., 2017]; [Coleman et al., 2020]). […] Loss-of-function in p ...” for “...”

[4] = tested on: 6× His-tagged ectodomains of MIK2; experiment: Competitive pull-down assay; assay type: binding, Arabidopsis thaliana; conditions: 50 nM MIK2 ectodomain, 250 nM biotinylated SCOOP10 or SCOOP12, 1 h, then increasing concentrations of the other peptide; anti-His Western blot, densitometry; three replicates
Method: Subsequently, 30 μL streptavidin magnetic beads (New England Biolabs) were added to each sample and incubated for 1 h at 4°C, followed by washing 5–6 times with 1.0 mL of interactive buffer. The proteins bound to the beads were then eluted using interactive buffer containing 5× SDS loading buffer, and western blot analysis was conducted as previously described ([Lan et al., 2023]). In the competitive binding assay, 50 nM purified MIK2 protein featuring a His-tag at its C-terminal was initially mixed with 250 nM of biotinylated SCOOP10. […] After thorough mixing, the beads underwent 5–6 washes to meticulously remove any residual proteins, and then the preparations were subjected to detailed analysis via western blotting to probe the interactions.

[5] = tested on: ORE1, NAP and SAG12 transcripts; experiment: qPCR expression of senescence genes in detached leaves; assay type: cell-based, Arabidopsis thaliana; conditions: 1 μM peptide, 0, 1, 5, 10 h, detached sixth rosette leaves, vs mock, ACTIN reference, three experiments
Excerpt: Total RNA was isolated from Arabidopsis leaves with the RNAiso Plus (TAKARA) and reverse transcribed using the PrimeScript RT reagent Kit (TAKARA). qPCR reactions were implemented in an Applied Biosystems 7500 Real-Time PCR system with the SYBR Premix Ex Taq II (TAKARA). ACTIN was used as the reference gene for qPCR analyses. The primers used for qPCR are listed in Supplemental Table 2.

B1: SERINE-RICH ENDOGENOUS PEPTIDE 10 (peptide)
peptide: ALPYHHELFLGRKRMNYYKPNSAIGTPSSTSDHAPGSNGRKLMSIYRPNGDIFTGPSGSGHGGGRTPAP
notes: processed from PROSCOOP10; synthesized by GenScript
In the case of B1, the “effect of competitor peptide on the MIK2 complex of the other peptide (MST)” value [1] is listed as “limited effect on the MIK2-SCOOP12 complex stability maintenance”, the “root growth inhibition in bik1 pbl1 (published)” value (bik1 pbl1 double mutants) is listed as “only mild alleviation of the SCOOP10-induced root growth inhibition” and the “root elongation (published)” value [2] is listed as “inhibiting root elongation”. For the same molecule, the “immune response (published)” value [3] was “inducing plant immune responses”, the “competition for MIK2 binding (pull-down signal)” value [4] was “the SCOOP12-MIK2 complex resulted in a stable interaction with SCOOP10 application at the concentrations tested” and the “expression of ORE1, NAP and SAG12” value [5] was “strongly and relatively quickly induced the expression of the tested transcripts”.
